We go through two molecules from US20070167369A1, “Novel use of isolated polypeptide comprising four FAS-1 domains, EM1 domain and RGD motif” (KYUNGPOOK NATIONAL UNIVERSITY INDUSTRY-ACADEMIC COOPERATION …, priority 2004, published 2007).

Assay [1] has as its system β5/HEK293 cells. The assay can be described thus: Apoptosis by annexin V staining, β5/HEK293 cells expressing αvβ5 integrin (Example 8). Format: cell-based. The note with it: annexin V FACS. On the procedure:
To identify an integrin that mediates the induction of endothelial cell apoptosis by the fas-1 domain, the present inventors performed a test using HEK293 cells (β3/HEK293 and β5/HEK293) which had been transfected such as to express αvβ3 integrin or αvβ5 integrin.
Meanwhile, a β5/HEK293 cell that expresses αvβ5 integrin was prepared in the following manner. In order to construct a human β5 integrin expression vector, RT-PCR using human placenta poly(A)^+ RNA as a template was first performed to prepare a 2.8-kb β5 cDNA (Suzuki et al., Proc. Natl. Acad. Sci. USA, 87:5354-5358, 1990). The amplified β5 cDNA was digested with EcoRI, and then cloned into a pcDNA3 vector (Invitrogen). The resulting vector was named “β5/pcDNA3”. Thereafter, 1 μg of the β5/pcDNA3 vector was introduced into HEK293 cells (ATCC, catalog No. CRL 1573) by lipofectamin (Gibco). A stable transfected cell was screened using 1 mg/ml of G418. The cell transfected with the β5/pcDNA3 vector was named “β5/HEK293”.
pc/HEK293 cells, β3/HEK293 cells and β5/HEK293 cells were stained with annexin V to identify an integrin that mediates the induction of endothelial cell apoptosis by the fas-1 domain. Each of the cells was suspended in medium at a density of 5×10^5 cells/ml, added to each well of 6-well plated and incubated at 37° C. overnight. Following this, a test was performed in the same manner as in Example 7-1 above.

Assay [2] has as its system Melanoma cells B16F10 tumor. The assay is described as follows: B16F10 subcutaneous tumor model, tumor growth and CD31 blood vessel count (Example 10-3). The format is in vivo, BALB/c nude mouse. As to conditions: 9 mg/kg or 18 mg/kg into the abdominal cavity one time a day. The protocol:
Melanoma cells B16F10 were suspended in medium at a density of 1×10^7 cells/ml. 0.1 ml of the cell suspension was injected subcutaneously to 5-6 week old BALB/c nude mouse (purchased from Jung-Ang Animal Inc. Ltd., Korea) to make a subcutaneous tumor model. When the volume of the tumor reached about 25 mm^3, mice having similar tumor size were selected and divided into three groups. The fas-1 domain (βig-h3 D-IV) prepared in Example 1 above was injected into the abdominal cavity of the mice of each group at the amount of 9 mg/kg or 18 mg/kg one time a day. A control was injected with saline solution. Thereafter, the body weight and tumor size of the mice were checked at intervals of three days. The diameter of the tumor was measured with slide calipers, and the volume of the tumor was calculated according to the equation 1 above.
Meanwhile, the tumor was removed after a given time, photographed with a stereoscopic microscope, weighed, and then fixed in 4% paraformaldehyde. The fixed tumor was immersed in 30%, 20% and 10% sucrose solutions one after another for one hour each solution, frozen rapidly with liquid nitrogen spray, and then left to stand at […] for two hours. The frozen tumor was sliced with a tissue microtome (Leica, Germany) to make tissue slides which were then dried at room temperature. Thereafter, the tissue slides were immuno-stained with CD31 (Pharmingen, San Diego, Calif.), an antibody that binds specifically to vascular endothelial cells. The immuno-stained slides were observed under a microscope, and the number of blood vessels from 3-5 LPF (low power fields; x100) was counted and averaged. Each group consisted of 5 or 6 members.

The subject of assay [3] is blood vessels in Matrigel plugs. The assay is described as follows: In vivo Matrigel plug assay (Example 9-2). More on the design: species or system C57/BL6 mice. The protocol: An in vivo Matrigel plug assay was performed according to the method described by Maeshima, Y. et al., J. Biol. Chem., 275:23745-23750, 2000. 5-6 week old male C57/BL6 mice purchased from Hyochang scientific company, Korea, were used.
First, Matrigel (BD Biosciences, MA) was mixed with 20 units/ml heparin, 150 ng/ml bFGF (basic fibroblast growth factor, R&D system, International, Inc), and 5 μM or 10 μM of the fas-1 domain (pig-h3 D-IV). As a control was treated with PBS. The Matrigel mixture was injected subcutaneously to the C57/BL6 mice. After 7 days, the mice were sacrificed, and the Matrigel plugs were removed and fixed in 4% paraformaldehyde. The Matrigel plugs were embedded in paraffin, sectioned and stained with H&E. Their sections were examined by light microscope, the number of blood vessels from 4-6 HPF (high power fields; x200) was counted and averaged. Each group consisted of 3 or 4 Matrigel plugs.

Assay [4] concerns HUVECs. The assay is described as follows: Binding of biotin-βig-h3 to HUVECs, Western immuno-blotting (Example 3-4). More on the design: species or system human. As to conditions: biotinylated βig-h3. On the procedure: To confirm that HUVECs adhesion that is mediated by βig-h3 depends on αvβ3 integrin, the present inventors tested the binding affinity of βig-h3 in the presence of an antibody that specifically blocks the function of the integrin. This binding assay was performed according to the method described by Maile, L. A., et al., J. Biol. Chem., […].
First, HUVECs were suspended in medium at a density of 1×10^5 cells/ml. 1 ml of the cell suspension was preincubated with anti-[…] antibody (LM609) or anti-αvβ5 antibody (P1F6) at 37° C. for 30 minutes. Thereafter, the preincubated cells were incubated with biotinylated βig-h3 (hereinafter, referred to as “biotin-βig-h3”) in a serum-free medium containing 0.1% BSA at 4° C. for 5 hours. The biotin-βig-h3 was added at concentrations of […], respectively. Then, the cells were washed three times with PBS buffer (pH 7.4), and dissolved at 4° C. in ice-cold buffer A (10 mM Tris-Cl, pH 7.4, 150 mM NaCl, 1% Nonidet P-40, 1% sodium deoxycholate, 0.5% SDS, 0.02% sodium azide, 1 mM EDTA, 1 mM phenylmethylsulfonyl fluoride). The cell lysates were clarified by centrifugation at 13,000 rpm for 30 minutes at 4° C. Equal amounts of protein were then separated by SDS-PAGE, 8% gel. The amount of biotin-βig-h3 was determined by Western immuno-blotting. […]

B1: fas-1 domain: recombinant protein containing the fourth fas-1 domain of human βig-h3 (SEQ ID NO: 64) (protein, listed as Homo sapiens)
chain: MGTVMDVLKGDNRFSMLVAAIQSAGLTETLNREGVYTVFAPTNEAFRALPPRERSRLLGDAKELANILKYHIGDEILVSGGIGALVRLKSLQGDKLEVSLKNNVVSVNKEPVAEPDIMATNGVVHVITNVL
On to B1, for which the “induction of apoptosis of β5/HEK293 cells” value in assay [1] is “not induced”. In assay [2], the “number of blood vessels stained with CD31 antibody in tumor” value was “significantly smaller than that of the control”, the “tumor growth rate with time” value was “much lower than that of the control” and the tumor size entry was “little or no increase in size even at 10 days after tumor induction”. Also, the “in vivo angiogenesis inhibitory effect compared with YH motif-containing peptide fragment of 18 amino acids” value in assay [3] (5 μM fas-1 domain vs 500 μM YH peptide) is listed as “significantly higher”. The “number of blood vessels in Matrigel plug” value in assay [3] (5 μM in Matrigel, subcutaneous, 7 days) was “significantly smaller than that in the control”. In addition, the “angiogenesis in Matrigel plug” value in assay [3] (10 μM in Matrigel, subcutaneous, 7 days) was “perfectly inhibited”.

B2: truncated βig-h3: recombinant human βig-h3 with EMI domain, all four fas-1 domains and RGD motif; residues 68-653 of SEQ ID NO: 1 (SEQ ID NO: 66) (protein, listed as Homo sapiens)
chain: WYQRKICGKSTVISYECCPGYEKVPGEKGCPAALPLSNLYETLGVVGSTTTQLYTDRTEKLRPEMEGPGSFTIFAPSNEAWASLPAEVLDSLVSNVNIELLNALRYHMVGRRVLTDELKHGMTLTSMYQNSNIQIHHYPNGIVTVNCARLLKADHHATNGVVHLIDKVISTITNNIQQIIEIEDTFETLRAAVAASGLNTMLEGNGQYTLLAPTNEAFEKIPSETLNRILGDPEALRDLLNNHILKSAMCAEAIVAGLSVETLEGTTLEVGCSGDMLTINGKAIISNKDILATNGVIHYIDELLIPDSAKTLFELAAESDVSTAIDLFRQAGLGNHLSGSERLTLLAPLNSVFKDGTPPIDAHTRNLLRNHIIKDQLASKYLYHGQTLETLGGKKLRVFVYRNSLCIENSCIAAHDKRGRYGTLFTMDRVLTPPMGTVMDVLKGDNRFSMLVAAIQSAGLTETLNREGVYTVFAPTNEAFRALPPRERSRLLGDAKELANILKYHIGDEILVSGGIGALVRLKSLQGDKLEVSLKNNVVSVNKEPVAEPDIMATNGVVHVITNVLQPPANRPQERGDELADSALEI
As for B2, in assay [4], the “binding to HUVECs surface” value is “bound to HUVECs surface in a dose-dependent manner”.
